Reference: the Human Domainome abundance scans (Beltran et al. 2025)
± gives the uncertainty stated by the source.

B1: Metastasis-associated protein MTA3, residues 265 to 317; numbered along this chain, Q9BTC8 (parent)
chain: RDEMEEWSASEASLFEEALEKYGKDFNDIRQDFLPWKSLTSIIEYYYMWKTTD

Variants of: B1
Test: abundance fitness (aPCA) (normalised: wild type 0, dead -1); higher = more abundant; growth selection in yeast, the domain comes from the species named
Conditions: Homo sapiens

Variant | abundance fitness
RDEMEEWSASEASLFEMALEKYGKDFNDIRQDFLPWKSLTSIIEYYYMWKTTD [E17M] | -0.333 ± 0.14
RDEMEEWSASEASLFEEALEKYGKDFNDIRQDFLPWKSLTSIIERYYMWKTTD [Y45R] | -0.174 ± 0.19
RDEMEEWSASEASLFEEMLEKYGKDFNDIRQDFLPWKSLTSIIEYYYMWKTTD [A18M] | -0.643 ± 0.14
RDEMEEWSASEASLFEEHLEKYGKDFNDIRQDFLPWKSLTSIIEYYYMWKTTD [A18H] | -0.873 ± 0.14
RDEMEEWSAGEASLFEEALEKYGKDFNDIRQDFLPWKSLTSIIEYYYMWKTTD [S10G] | -0.275 ± 0.092
RDEMEEWSASEASLFEEALEKYGLDFNDIRQDFLPWKSLTSIIEYYYMWKTTD [K24L] | -0.006 ± 0.076
RDEMEEWSASEASLFEEALEKYGPDFNDIRQDFLPWKSLTSIIEYYYMWKTTD [K24P] | 0.307 ± 0.061
LDEMEEWSASEASLFEEALEKYGKDFNDIRQDFLPWKSLTSIIEYYYMWKTTD [R1L] | -0.098 ± 0.11
KDEMEEWSASEASLFEEALEKYGKDFNDIRQDFLPWKSLTSIIEYYYMWKTTD [R1K] | 0.028 ± 0.26
GDEMEEWSASEASLFEEALEKYGKDFNDIRQDFLPWKSLTSIIEYYYMWKTTD [R1G] | 0.335 ± 0.17
PDEMEEWSASEASLFEEALEKYGKDFNDIRQDFLPWKSLTSIIEYYYMWKTTD [R1P] | -0.529 ± 0.34
RDEMEEWSASEASLFEEALEKYGKDFNDIRQDFLPWSSLTSIIEYYYMWKTTD [K37S] | -0.65 ± 0.074
RDEMEEWSASEASLFEEALEKYGKDFNDIRQDFLPWFSLTSIIEYYYMWKTTD [K37F] | -0.785 ± 0.089
RDEMEEWSASEASLFEEALEKYGKDFNDIRQDFLPWKSLTSIIEYMYMWKTTD [Y46M] | -0.99 ± 0.37
RDEMEEWSASEASLFEEALEKYGKDFNDIRQDFLPWKSLTSIIEYAYMWKTTD [Y46A] | -0.824 ± 0.12
RDEMEEWSASEASLFEEALEKYGKVFNDIRQDFLPWKSLTSIIEYYYMWKTTD [D25V] | -0.818 ± 0.2
RDEMEEWSASEASLFEEALEKYGKQFNDIRQDFLPWKSLTSIIEYYYMWKTTD [D25Q] | 0.088 ± 0.095
RDEMEEWSASEASLFEEALEKYGKAFNDIRQDFLPWKSLTSIIEYYYMWKTTD [D25A] | 0.556 ± 0.086
RDEMEEWSASEASLFEEALEKYGKNFNDIRQDFLPWKSLTSIIEYYYMWKTTD [D25N] | 0.356 ± 0.16
RDEMEEWSASEASLFEEALEKYGKEFNDIRQDFLPWKSLTSIIEYYYMWKTTD [D25E] | -0.087 ± 0.19
RDEMEEWSASEASLFEEALEKYGKDFNDIRQDFLPWKSLTSMIEYYYMWKTTD [I42M] | -0.833 ± 0.13
RDEMEEWSASEASLFEEALEKYGKDFNDIRQDFLPWKSLTSIIEYYYMYKTTD [W49Y] | 0.077 ± 0.091
RDEMEEWSASEASLFEEALEKYGKDFNDIRQDFLPWKSLTSIIEYYYMNKTTD [W49N] | 0.404 ± 0.15
RDEMEEWSASEASLFEEALEKYGKDFNDIRQDFLPWKSLTSIIEYYYMMKTTD [W49M] | 0.353 ± 0.12
RDEMEEWSASEASLFEEALEKYGKDFNDIRQDFLPWKSLTSIIEYYYMHKTTD [W49H] | 0.122 ± 0.12

Variant | abundance fitness
RDEMEEWSASEASLFEEALEKYGKDFNDIRQDFLPWKSLTSIIAYYYMWKTTD [E44A] | -0.477 ± 0.1
RDEMEEWSASEASLFEEALEKYGKDFNDIRQDFLPWKSLTSIIHYYYMWKTTD [E44H] | -0.438 ± 0.14
RDEMEEWSASEASLFEEALEKYGKDFNDIRQDFLPWKSLTSIINYYYMWKTTD [E44N] | 0.177 ± 0.18
RDEMEEWSASEASVFEEALEKYGKDFNDIRQDFLPWKSLTSIIEYYYMWKTTD [L14V] | -0.686 ± 0.12
RDEMEEWSASEASYFEEALEKYGKDFNDIRQDFLPWKSLTSIIEYYYMWKTTD [L14Y] | -0.353 ± 0.17
RDEMEEWSASEASQFEEALEKYGKDFNDIRQDFLPWKSLTSIIEYYYMWKTTD [L14Q] | -0.68 ± 0.15
RDEMEEWSASEASLFEEALEKYGKDFNDIRQDFLPWKSLTSIIEYYYMWKTTP [D53P] | -0.044 ± 0.097
RDEMEEWSASEASLFEEALEKYGKDFNDIRQDFLPWKSLTSIIEYYYMWKTTA [D53A] | -0.135 ± 0.095
RDEMEEWSASEASLFEEALPKYGKDFNDIRQDFLPWKSLTSIIEYYYMWKTTD [E20P] | -0.864 ± 0.14
RDEMEEWSASEASLFEEALAKYGKDFNDIRQDFLPWKSLTSIIEYYYMWKTTD [E20A] | 0.007 ± 0.093
RDEMEEWSASEASLFEEALEKYGKDFNDIRQDFLPWKSLTSIIEYYYMWVTTD [K50V] | 0.311 ± 0.11
RDEMEEWSASEASLFEEALEKYGKDFNDIRQDFLPWKSLTSIIEYYYMWQTTD [K50Q] | -0.102 ± 0.077
RDEMEEWSASEASLFEEALEKYGKDFNDIRQDFLPWKLLTSIIEYYYMWKTTD [S38L] | -0.69 ± 0.12
RDEMEEWSASEASLFEEALEKYGKDFNDIRQDFLPWKGLTSIIEYYYMWKTTD [S38G] | 0.47 ± 0.2
RDEMEEWSASEASLFEEAYEKYGKDFNDIRQDFLPWKSLTSIIEYYYMWKTTD [L19Y] | 0.49 ± 0.11
RDEMEEWSASEASLFEEANEKYGKDFNDIRQDFLPWKSLTSIIEYYYMWKTTD [L19N] | -0.785 ± 0.18
RDEMEEWSASEASLFEEAFEKYGKDFNDIRQDFLPWKSLTSIIEYYYMWKTTD [L19F] | 0.459 ± 0.07
RDEMEEWSASEASLFEEALEKYGKDFNDIRQDFLPWKSLTSIIEYYYMWKTCD [T52C] | 0.191 ± 0.14
RDEMEEWSASEASLFEEALEKYGKDFNDIRQDFLPWKSLTSIIEYYYMWKTGD [T52G] | 0.001 ± 0.097
RDEMEEWSASEASLFEEALEKYGKDFNDIRQDFLPWKSLTSIIEYYYMWKTDD [T52D] | -0.251 ± 0.21
RDEMEEWSASEASLFEEALEKYGKDFNDIRQDFLPWKSLTSIFEYYYMWKTTD [I43F] | -0.474 ± 0.18
RDEMEEWSASEASLFEEALEKYGKDFNDIRQDFLPWKSLTSIMEYYYMWKTTD [I43M] | -0.01 ± 0.085
RDEMEEWSASEASLFEEALEKYGKDFNDIRQDFLPWKSLTSIEEYYYMWKTTD [I43E] | 0.392 ± 0.11
RDEMEEWSASEASLFEEALEKYGKDFNDIRQDFLPWKSLTSIHEYYYMWKTTD [I43H] | -0.075 ± 0.075
RDEMEEWSASEASLFEEALEKYGKDFNDIRQDFLPWKSLTSITEYYYMWKTTD [I43T] | -0.193 ± 0.095
